Values of other authors as cited in patent US11474093B2, “Analysis method of protein-protein interaction and a screening method of protein-protein interaction inhibitors using a nanopore” (Korea Research Institute of Bioscience and Biotechnology, priority 2016, dated 2022).
Like-named read-outs stand apart in the source and are kept apart here.

Biological target: MDM2 (Homo sapiens, UniProt Q00987)
Sequence (Q00987 whole entry): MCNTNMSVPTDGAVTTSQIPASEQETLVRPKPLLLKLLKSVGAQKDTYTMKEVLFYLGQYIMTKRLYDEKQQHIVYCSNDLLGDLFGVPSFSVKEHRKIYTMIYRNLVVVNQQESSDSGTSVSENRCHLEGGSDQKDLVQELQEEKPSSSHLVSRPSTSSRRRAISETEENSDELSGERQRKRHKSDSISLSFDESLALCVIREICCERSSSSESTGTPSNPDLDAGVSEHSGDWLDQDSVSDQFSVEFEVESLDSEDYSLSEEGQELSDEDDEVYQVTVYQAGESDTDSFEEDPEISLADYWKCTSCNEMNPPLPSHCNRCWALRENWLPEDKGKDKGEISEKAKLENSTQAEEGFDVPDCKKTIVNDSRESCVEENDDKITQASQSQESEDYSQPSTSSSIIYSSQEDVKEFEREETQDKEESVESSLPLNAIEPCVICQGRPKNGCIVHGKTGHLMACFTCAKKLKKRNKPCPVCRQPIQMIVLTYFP

Kd (read-out: Kd of the interaction between MDM2 and p53TAD): 600 nM
Kd (read-out: dissociation coefficient (Kd) with MDM2): ~600 nM
Substance: p53TAD: residues 1 to 73 of p53 transactivation domain (TAD)
